The data set in a line: soluble on expression in E. coli; label from the status in PepcDB or PDB records.
“GPGSMELSFPDKYYEVAKYFDYYVGNLEESPLLSDAQRLMFYALRQQADHGQCTTAAPSFWNSRERHKHQAWKQLGRMSTFEAMVFFVQQFEQLLTQLENSTGQPASTSGATARAGAVDWPSRLREMKSKMAPSPGNRPHRSEALASDGAHATNDILAVRRGPSPA”: the “soluble on expression in E. coli” value is “soluble”.

As to “MGHHHHHHSHMASGFIEIANKQGLTATLLPFGATLAKLTFPDKNGKNQDLVLGFDTIDEFEKDAASIGKTVGRVANRIKNSTLHFDGKQYTMTPNNGPHYLHGGPNGLGYRKWEVVRHAPESVSFSVRANEQDDGLPGDAKIDVTYTVNDRNQLIIEHHATCDTPGLLALTNHAYWNLDGSDTVAEHFLEMEADEFVEVDDTFCPTGAIRSVTDTGFDFRSGKQLKESGKDAEELLDLDNDLVITKKTPPSTPSTYLRFWSEKSGIELSITTSYPVIHLYASKFLDCKGKKGEHYKANKALAIEPQFHSAAPNFDHFPDVSLRPGDHYCQEIVYTFSHVN”, the “soluble on expression in E. coli” value is “soluble”.

For “MSLKVREEKLRTIIEWSEKNEDVRVLLLTSSLVNPLALVDEFSDLDIEFVFEDNTNYISDKSWTLKFGNPIAMIEEDESCFNHKHAMKMLLYEDGVKVDFKLYSKSKFIKETQEKELPEDWDIGYKILIDKDGITKQMLKPTYQISIIKKPSEKEFQNLINDFWWDTTYVAKCLVRDEIFYAKFMSETVIRTEYLIPLIEWHIASEHNWNITTNKYGRLFKKYLNQEMWAKTEQTFSGSDIKENWTALFSMTDLVSEIGTELSKKLEYKYPDKLENDIRKYLAGLKPKTEGHHHHHH”, the “soluble on expression in E. coli” value is “soluble”.

As to “MAGGLIRGKLIAIIGDEDTVTGFLLGGIGELNKNRKPNFLVVEKETSVTEIEETFRSFLNRDDIGIILINQFIAEMIRHAIDAHTISIPAVLEIPSKEHPYDATKDSILRRAKGMFTVDDLR”, the “soluble on expression in E. coli” value is listed as “soluble”.

As to “GMAQNIYDQPDFFAGYSQLGRSIEGLDGAAEWPALRAMLPEVGGLRIVDLGCGFGWFCRWAHEHGASYVLGLDLSEKMLARARAAGPDTGITYERADLDKLHLPQDSFDLAYSSLALHYVEDVARLFRTVHQALSPGGHFVFSTEHPIYMAPARPGWAIDAEGRRTWPIDRYLVEGPRKTDWLAKGVVKHHRTVGTTLNALIRSGFAIEHVEEFCPTDAQITARPELAEELDRPMFLLVSARR”, the “soluble on expression in E. coli” value is listed as “soluble”.

Consider “MSLTANSHAVMTVGDQTVSPQEFRLAYQRQVSDLSRQFGTRLTTEQAKAFGIDRQVFSQLAAGAALDELASKMNLGLSENRLANLIAEDPAFKSVNGQFDRNLFSERLRNSGFREDDYIKERSKVAVRSQIVEAVSDGFAAPQVLVDALKQYRNEQRAVDYVILSNAVIPPVKAPGDDVLTPWFETNKSKYRAPEFRKFTYVKLEPSDIAEPASVTDAQIADYYNSHKDSFRTAGRRTVEQLTFPDKEMAAAAAEQIRLGNTTYDQVVKDQGKTASDVTLGEFTKDTIPDQSIADAAFAIQKDGGVSPVVDGSFGPILLRVTGIKPETEGHHHHHH”, for which the “soluble on expression in E. coli” value was “soluble”.

As for “PFKKRRTEDEIRKQCPWATLGRKGGRQPNIITSLELDSAVMEQNNLRFQKKYAEIEANEVRYEEYQTEDADYILVAFGSSARICNKTVQLARQQGIKAGILRPITLWPFPTKEIAKLADRAKGFLVAELNAGQMIEDVRLAVNGKVPVEHYGRMGGMLFSPDEILQALKEKVIK”, the “soluble on expression in E. coli” value is listed as “not soluble”.

With “SASSQGKNELKLADWMATLPESMHSIPLTNLAIPGSHDSFSFYIDEASPVGPEQPETVQNFVSVFGTVAKKLMRKWLATQTMNFTGQLGAGIRYFDLRISTKPRDPDNELYFAHGLFSAKVNEGLEEINAFLTDHHKEVVFLDFNHFYGMQKYHHEKLVQMLKDIYGNKMCPAIFAQEVSLKYLWEKDYQVLVFYHSPVALEVPFLWPGQMMPAPWANTTDPEKLIQFLQASITERRKKGSFFISQVVLTPKASTVVKGVASGLRETITERALPAMMQWVRTQKPGESGINIVTADFVELGDFISTVIKLNYVFDEGEANT”, the “soluble on expression in E. coli” value was “soluble”.

Turning to “SLTTTDADWKPVADALGRSGKLGDNNTAYRINLPRNDLHITSYGVDIKPGLSLGGYAAFARYDNNETLLMGDLVITEEELPKVTDALQAHGIAQTALHKHLLQQDPPVWWTHIHGMGDAARLAQGLKAALDATTIGPPTPPPARQPPVDIDVAGVDQALGRKGTQDGGLMKYSIPRKDTIIEDGHVLPAVSLNLTTVINFQPVGRGRAAINGDFILIAPEVQEVIRAMRAGNITIVELHNHGLTEEPRLFYMHYWAVDDAVTLARALRPAMDATNLQS”, the “soluble on expression in E. coli” value was “not soluble”.

Source of the values: the DeepSol protein solubility set.
